Results as given in patent publication US20240209106A1 (BEIGENE SWITZERLAND, published 2024).
One block for each binder: values may come before it.

Key:
TNFRSF7(CD27) = target: T1, TNFRSF7(CD27) (UniProt P26842 21-192, limits assumed); experiment: antigen ELISA, receptor coated at 10 ug/ml, detection with HRP anti-human IgG
T1 construct: Bought protein
T1 sequence (looked up): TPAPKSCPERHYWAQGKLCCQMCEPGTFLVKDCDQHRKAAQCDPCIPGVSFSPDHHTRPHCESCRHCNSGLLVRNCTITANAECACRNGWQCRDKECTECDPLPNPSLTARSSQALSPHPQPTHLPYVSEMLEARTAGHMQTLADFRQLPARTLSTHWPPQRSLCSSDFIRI
Experimental: (§1) For antigen ELISA, a Maxisorp immunoplate was coated with antigens and blocked with 3% BSA (w/v) in PBS buffer (blocking buffer). Monoclonal VH domain antibodies were blocked with blocking buffer for 30 min and added to wells of the ELISA plate for 1 hour.

human CD40 ECD = target: T2, human CD40 ECD (human, UniProt P25942 21-194); experiment: as above
T2 construct: also called TNFRSF5(CD40); huCD40
T2 sequence (P25942 21-194 limits assumed): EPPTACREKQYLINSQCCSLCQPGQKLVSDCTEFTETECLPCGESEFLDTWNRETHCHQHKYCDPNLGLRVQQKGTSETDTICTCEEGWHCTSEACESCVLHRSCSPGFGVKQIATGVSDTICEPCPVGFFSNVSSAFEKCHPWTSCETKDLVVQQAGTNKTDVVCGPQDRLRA
Experimental: as §1

TNFRSF1A(CD120a) = target: T3, TNFRSF1A(CD120a) (UniProt P19438 22-211, limits assumed); experiment: as above
T3 construct: Bought protein
T3 sequence (looked up): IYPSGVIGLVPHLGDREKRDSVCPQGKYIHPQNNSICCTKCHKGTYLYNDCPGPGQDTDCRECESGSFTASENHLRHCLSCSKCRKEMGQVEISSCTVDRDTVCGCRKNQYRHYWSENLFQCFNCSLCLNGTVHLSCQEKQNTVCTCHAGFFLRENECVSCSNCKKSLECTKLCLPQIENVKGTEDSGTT
Experimental: as §1

TNFRSF1B(CD120b) = target: T4, TNFRSF1B(CD120b) (UniProt P20333 23-257); experiment: as above
T4 construct: Bought protein
T4 sequence (looked up): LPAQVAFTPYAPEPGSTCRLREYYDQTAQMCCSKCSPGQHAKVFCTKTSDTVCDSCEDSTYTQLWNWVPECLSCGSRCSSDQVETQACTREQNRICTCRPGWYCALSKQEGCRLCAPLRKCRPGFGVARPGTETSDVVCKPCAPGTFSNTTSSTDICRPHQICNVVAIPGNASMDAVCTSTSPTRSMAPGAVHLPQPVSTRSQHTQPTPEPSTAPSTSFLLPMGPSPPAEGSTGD
Experimental: as §1

[1] = target: T5, full-length human CD137 (huCD137) (human, UniProt Q07011 24-255); experiment: flow cytometry ligand competition on Hut78/huCD137: human CD137 ligand ECD-mIgG2a in the presence of serially diluted antibody, ligand detected with goat anti-murine IgG-APC; blocked ligand: m5
T5 construct: On transduced Hut78 cells (Hut78/huCD137), transiently on HEK293 cells, or natively on PBMC/T cells; also called TNFRSF9; 4-1BB
T5 sequence (Q07011 24-255 limits assumed): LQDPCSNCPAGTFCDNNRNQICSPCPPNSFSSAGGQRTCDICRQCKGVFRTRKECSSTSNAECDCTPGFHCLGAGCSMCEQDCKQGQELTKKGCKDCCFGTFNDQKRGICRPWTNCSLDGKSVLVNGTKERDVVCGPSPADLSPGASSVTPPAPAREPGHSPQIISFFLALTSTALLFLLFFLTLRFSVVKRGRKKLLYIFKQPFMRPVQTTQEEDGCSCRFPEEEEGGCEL

human CD137 ECD-mIgG2a [2] = target: human CD137 ECD-mIgG2a (human); experiment: SPR, human CD137 ECD-mIgG2a
Sequence of human CD137 ECD-mIgG2a (human) (chain, as listed by the source limits assumed): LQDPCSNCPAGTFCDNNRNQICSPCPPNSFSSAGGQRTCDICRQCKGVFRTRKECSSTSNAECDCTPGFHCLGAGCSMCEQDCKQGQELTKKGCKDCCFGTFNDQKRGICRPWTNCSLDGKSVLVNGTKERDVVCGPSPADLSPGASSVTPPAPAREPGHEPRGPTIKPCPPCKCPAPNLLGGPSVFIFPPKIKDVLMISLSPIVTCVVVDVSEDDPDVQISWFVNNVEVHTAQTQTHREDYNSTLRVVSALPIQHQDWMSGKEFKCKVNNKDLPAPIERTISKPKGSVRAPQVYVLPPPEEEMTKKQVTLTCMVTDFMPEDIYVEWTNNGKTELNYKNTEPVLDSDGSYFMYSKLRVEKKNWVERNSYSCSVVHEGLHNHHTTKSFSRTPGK

[3] = target: T5, full-length human CD137 (huCD137); experiment: flow cytometry on Hut78/huCD137 cells
human CD137 ECD-mIgG2a [4] = target: human CD137 ECD-mIgG2a (human); experiment: SPR, antibody captured on anti-human Fc surface; analyte taken as human CD137 ECD-mIgG2a
human CD137 ECD-mIgG2a [5] = target: human CD137 ECD-mIgG2a (human); experiment: SPR, multispecific antibody captured on anti-human IgG Fc chip, human CD137 ECD-mIgG2a flowed over; Table 15, comparison run with the affinity-matured variants
Experimental: Briefly, anti-human IgG (Fc) antibody was immobilized on an activated CM5 biosensor chip (Cat.: BR100839, GE Life Sciences). Anti-huCD137 monoclonal antibodies or multispecific antibodies were flown through the chip surface and captured by anti-human IgG (Fc) antibody. […] The equilibrium dissociation constant (KD)) was calculated as the ratio koff/kₒₙ.

[6] = target: T6, human CD137 ECD (AA 24-183) (human, UniProt Q07011 24-183); experiment: method and huCD137 construct not stated
T6 construct: also called huCD137

recombinant CEA protein = target: T7, recombinant CEA protein (human, UniProt P06731 35-685, limits assumed); experiment: method and CEA construct not stated (TAA KD)
T7 construct: also called recombinant soluble CEA; in-house made recombinant CEA proteins
T7 sequence (looked up): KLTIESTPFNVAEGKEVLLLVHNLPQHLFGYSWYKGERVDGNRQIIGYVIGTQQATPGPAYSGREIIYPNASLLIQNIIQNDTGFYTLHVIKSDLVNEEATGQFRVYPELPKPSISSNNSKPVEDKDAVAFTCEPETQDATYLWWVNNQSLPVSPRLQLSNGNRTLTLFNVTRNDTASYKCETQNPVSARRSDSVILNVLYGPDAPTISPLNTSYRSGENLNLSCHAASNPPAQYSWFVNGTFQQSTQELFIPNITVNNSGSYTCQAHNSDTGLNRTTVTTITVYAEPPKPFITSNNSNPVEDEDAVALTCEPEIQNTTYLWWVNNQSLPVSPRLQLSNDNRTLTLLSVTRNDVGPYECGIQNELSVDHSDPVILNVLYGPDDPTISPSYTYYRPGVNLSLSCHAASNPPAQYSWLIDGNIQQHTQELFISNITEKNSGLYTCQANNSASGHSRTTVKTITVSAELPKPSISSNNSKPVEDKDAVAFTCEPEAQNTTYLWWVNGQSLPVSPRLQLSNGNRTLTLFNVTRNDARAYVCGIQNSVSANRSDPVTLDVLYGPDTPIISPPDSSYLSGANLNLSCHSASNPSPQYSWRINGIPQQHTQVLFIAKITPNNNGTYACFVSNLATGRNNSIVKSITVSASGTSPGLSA

human CEA on cells = target: T8, human CEA on cells (human, UniProt P06731 35-685); experiment: flow cytometry on MKN45 cells [panel A]
T8 construct: whole, on cells; also called CT26/CEA; MKN45
T8 sequence (looked up): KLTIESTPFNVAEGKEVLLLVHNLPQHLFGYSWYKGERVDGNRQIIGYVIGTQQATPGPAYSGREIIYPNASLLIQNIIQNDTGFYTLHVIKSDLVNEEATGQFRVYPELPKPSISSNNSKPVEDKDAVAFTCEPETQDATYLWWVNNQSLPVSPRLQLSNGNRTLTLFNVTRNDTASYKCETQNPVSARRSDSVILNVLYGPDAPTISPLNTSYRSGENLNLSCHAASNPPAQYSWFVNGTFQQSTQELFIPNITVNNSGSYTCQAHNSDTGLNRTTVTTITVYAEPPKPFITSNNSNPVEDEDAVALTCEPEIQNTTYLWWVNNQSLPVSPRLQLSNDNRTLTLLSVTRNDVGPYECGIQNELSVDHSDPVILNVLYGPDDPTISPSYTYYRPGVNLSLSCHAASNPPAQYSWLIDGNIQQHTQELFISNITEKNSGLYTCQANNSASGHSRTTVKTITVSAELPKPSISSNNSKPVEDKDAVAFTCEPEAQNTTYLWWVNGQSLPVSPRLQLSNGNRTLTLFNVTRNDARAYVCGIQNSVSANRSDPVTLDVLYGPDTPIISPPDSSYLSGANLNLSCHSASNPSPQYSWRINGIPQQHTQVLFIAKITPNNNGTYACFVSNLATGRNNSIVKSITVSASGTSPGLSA

- binding result (TNFRSF7(CD27)): no binding
- binding result (human CD40 ECD): no binding
- binding result (TNFRSF1A(CD120a)): no binding
- binding result (TNFRSF1B(CD120b)): no binding
- IC50 (read off the curve) [1]: ~0.03 µg/mL
B1: Urelumab analog (antibody, human IgG4 S228P, kappa, V domains shown)
VH: QVQLQQWGAGLLKPSETLSLTCAVYGGSFSGYYWSWIRQSPEKGLEWIGEINHGGYVTYNPSLESRVTISVDTSKNQFSLKLSSVTAADTAVYYCARDYGPGNYDWYFDLWGRGTLVTVSS
VL: EIVLTQSPATLSLSPGERATLSCRASQSVSSYLAWYQQKPGQAPRLLIYDASNRATGIPARFSGSGSGTDFTLTISSLEPEDFAVYYCQQRSNWPPALTFGGGTKVEIKR

- Kd (human CD137 ECD-mIgG2a [2]): 255 nM
- EC50 [3]: 0.52 µg/mL
- Kd (human CD137 ECD-mIgG2a [4]): 255 nM
- koff (human CD137 ECD-mIgG2a [4]): 0.00267 s⁻¹
- kon (human CD137 ECD-mIgG2a [4]): 10500 M⁻¹ s⁻¹
- Kd (human CD137 ECD-mIgG2a [5]): 289 nM
B2: A-CD137×CEA-M3 (bispecific antibody, human IgG1, kappa)
heavy: QVQLVQSGAEVKKPGASVKVSCKASGYIFTSYYLHWVRQAPGQGLEWIGYINPQTGKTSYAQKFQGRVTMTRDTSTSTVYMELSSLRSEDTAVYYCAREYGNYNYPLDYWGQGTLVTVSSASTKGPSVFPLAPSSKSTSGGTAALGCLVKDYFPEPVTVSWNSGALTSGVHTFPAVLQSSGLYSLSSVVTVPSSSLGTQTYICNVNHKPSNTKVDKKVEPKSCDKTHTCPPCPAPPAAGPSVFLFPPKPKDTLMISRTPEVTCVVVDVSHEDPEVKFNWYVDGVEVHNAKTKPREEQYNSTYRVVSVLTVLHQDWLNGKEYKCKVSNKALAAPIEKTISKAKGQPREPQVYTLPPSREEMTKNQVSLTCLVKGFYPSDIAVEWESNGQPENNYKTTPPVLDSDGSFFLYSKLTVDKSRWQQGNVFSCSVMHEALHNHYTQKSLSLSPGKGGGGSEVQLLESGGGLVQPGGSLRLSCAASGFTLSAEDVGWVRQAPGKGLEWVSAILDFGGSTYYAESVKGRFTISRDNAKNTLYLQMSSLRAEDTAVYYCARVVYHAGGGVTFDYWGQGTLVTVSS
light: DIQMTQSPSSLSASVGDRVTITCRASENQYGYLAWYQQKPGKVPKLLIYNYKNLVEGVPSRFSGSGSGTDFTLTISSLQPEDVATYYCQHHLGTPYTFGQGTKVEIKRTVAAPSVFIFPPSDEQLKSGTASVVCLLNNFYPREAKVQWKVDNALQSGNSQESVTEQDSKDSTYSLSSTLTLSKADYEKHKVYACEVTHQGLSSPVTKSFNRGEC
notes: The chain is therefore built from its pieces

- Kd [6]: 167 nM
- Kd (recombinant CEA protein): 6.5 nM
- EC50 (read off the curve) (human CEA on cells): ~0.5 µg/mL
B3: BE-146 (CEA × CD137) (bispecific antibody, human IgG1, kappa)
heavy: QVQLVQSGAEVKKPGASVKVSCKASGYIFTSYYLHWVRQAPGQGLEWIGYINPQTGKTSYAQKFQGRVTMTRDTSTSTVYMELSSLRSEDTAVYYCAREYGNYNYPLDYWGQGTLVTVSSASTKGPSVFPLAPSSKSTSGGTAALGCLVKDYFPEPVTVSWNSGALTSGVHTFPAVLQSSGLYSLSSVVTVPSSSLGTQTYICNVNHKPSNTKVDKKVEPKSCDKTHTCPPCPAPPAAGPSVFLFPPKPKDTLMISRTPEVTCVVVDVSHEDPEVKFNWYVDGVEVHNAKTKPREEQYNSTYRVVSVLTVLHQDWLNGKEYKCKVSNKALAAPIEKTISKAKGQPREPQVYTLPPSREEMTKNQVSLTCLVKGFYPSDIAVEWESNGQPENNYKTTPPVLDSDGSFFLYSKLTVDKSRWQQGNVFSCSVMHEALHNHYTQKSLSLSPGKGGGGSEVQLLESGGGLVQPGGSLRLSCAASGFTVSAEDVGWVRQAPGKGLEWVSAILDKGGSTYYAESVKGRFTISRDNAKNTLYLQMSSLRAEDTAVYYCARIVYHAGGGVTFDTRGQGTQVTVSS
light: DIQMTQSPSSLSASVGDRVTITCRASENQYGYLAWYQQKPGKVPKLLIYNYKNLVEGVPSRFSGSGSGTDFTLTISSLQPEDVATYYCQHHLGTPYTFGQGTKVEIKRTVAAPSVFIFPPSDEQLKSGTASVVCLLNNFYPREAKVQWKVDNALQSGNSQESVTEQDSKDSTYSLSSTLTLSKADYEKHKVYACEVTHQGLSSPVTKSFNRGEC
notes: Module ratio 2:2
